This passage reports ^35S-Vif binds with GST-Vif (%) results from patent publication US20040086512A1.

For the assay, the target named is GST-Vif fusion protein (HIV-1 (HIV-1NL4-3)) (UniProt P12504). In words: Vif-Vif binding assay (GST pull-down) without peptide, set as 100%.
GST-Vif fusion protein (HIV-1 (HIV-1NL4-3)), sequence (P12504 whole entry, the tested form may be a part): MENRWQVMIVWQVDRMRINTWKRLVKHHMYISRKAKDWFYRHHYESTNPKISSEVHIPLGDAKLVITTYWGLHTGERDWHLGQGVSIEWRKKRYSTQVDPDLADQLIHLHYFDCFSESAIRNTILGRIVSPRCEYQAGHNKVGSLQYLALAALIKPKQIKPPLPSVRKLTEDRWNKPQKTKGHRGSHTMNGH

in vitro translated ^35S-labeled HIV-1NL4-3 Vif protein, P12504 1-192 (other; ^35S-labeled (in vitro translation in the presence of ^35S-methionine); other documents disagree on this pair), sequence (P12504 whole entry): as the sequence (P12504 whole entry, the tested form may be a part) above

“in vitro translated ^35S-labeled HIV-1NL4-3 Vif protein, P12504 1-192 (other; ^35S-labeled (in vitro translation in the presence of ^35S-methionine); other documents disagree on this pair)” showed a ^35S-Vif binds with GST-Vif (%) of 100%.
